B1: Ras-related protein Rab-5C (Homo sapiens), P51148 (parent)
chain: MAGRGGAARPNGPAAGNKICQFKLVLLGESAVGKSSLVLRFVKGQFHEYQESTIGAAFLTQTVCLDDTTVKFEIWDTAGQERYHSLAPMYYRGAQAAIVVYDITNTDTFARAKNWVKELQRQASPNIVIALAGNKADLASKRAVEFQEAQAYADDNSLLFMETSAKTAMNVNEIFMAIAKKLPKNEPQNATGAPGRNRGVDLQENNPASRSQCCSN
B2: Ras-related protein Rab-5A (Homo sapiens), P20339-1 (parent)
chain: MASRGATRPNGPNTGNKICQFKLVLLGESAVGKSSLVLRFVKGQFHEFQESTIGAAFLTQTVCLDDTTVKFEIWDTAGQERYHSLAPMYYRGAQAAIVVYDITNEESFARAKNWVKELQRQASPNIVIALSGNKADLANKRAVDFQEAQSYADDNSLLFMETSAKTSMNVNEIFMAIAKKLPKNEPQNPGANSARGRGVDLTEPTQPTRNQCCSN
B3: Ras-related protein Rab-5C (Homo sapiens), P51148 (parent)
chain: B1 chain
partner: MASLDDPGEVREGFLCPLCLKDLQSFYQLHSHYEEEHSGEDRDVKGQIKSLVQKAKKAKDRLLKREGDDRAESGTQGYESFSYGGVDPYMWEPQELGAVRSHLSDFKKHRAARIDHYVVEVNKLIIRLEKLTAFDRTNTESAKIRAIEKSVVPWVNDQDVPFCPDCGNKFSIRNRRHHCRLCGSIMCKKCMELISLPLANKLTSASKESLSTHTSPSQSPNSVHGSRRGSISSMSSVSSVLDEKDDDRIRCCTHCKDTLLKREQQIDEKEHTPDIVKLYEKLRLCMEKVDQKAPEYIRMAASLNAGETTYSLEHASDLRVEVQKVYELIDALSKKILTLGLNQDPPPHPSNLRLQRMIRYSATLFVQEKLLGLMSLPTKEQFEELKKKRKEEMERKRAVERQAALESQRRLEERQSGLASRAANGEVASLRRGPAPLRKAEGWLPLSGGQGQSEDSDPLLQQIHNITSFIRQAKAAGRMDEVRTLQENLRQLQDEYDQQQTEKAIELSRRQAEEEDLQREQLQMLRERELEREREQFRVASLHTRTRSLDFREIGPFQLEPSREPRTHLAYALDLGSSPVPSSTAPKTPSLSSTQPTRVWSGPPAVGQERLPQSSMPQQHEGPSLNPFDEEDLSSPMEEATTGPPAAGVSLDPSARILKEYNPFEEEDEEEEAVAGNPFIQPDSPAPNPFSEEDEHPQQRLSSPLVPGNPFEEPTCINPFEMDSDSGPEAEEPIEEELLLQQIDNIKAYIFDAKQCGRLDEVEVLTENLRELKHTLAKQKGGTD

Variants of: B1
Conditions: with eea1_human EEA1, Q15075
eea1_human EEA1, Q15075, sequence (Q15075 whole entry): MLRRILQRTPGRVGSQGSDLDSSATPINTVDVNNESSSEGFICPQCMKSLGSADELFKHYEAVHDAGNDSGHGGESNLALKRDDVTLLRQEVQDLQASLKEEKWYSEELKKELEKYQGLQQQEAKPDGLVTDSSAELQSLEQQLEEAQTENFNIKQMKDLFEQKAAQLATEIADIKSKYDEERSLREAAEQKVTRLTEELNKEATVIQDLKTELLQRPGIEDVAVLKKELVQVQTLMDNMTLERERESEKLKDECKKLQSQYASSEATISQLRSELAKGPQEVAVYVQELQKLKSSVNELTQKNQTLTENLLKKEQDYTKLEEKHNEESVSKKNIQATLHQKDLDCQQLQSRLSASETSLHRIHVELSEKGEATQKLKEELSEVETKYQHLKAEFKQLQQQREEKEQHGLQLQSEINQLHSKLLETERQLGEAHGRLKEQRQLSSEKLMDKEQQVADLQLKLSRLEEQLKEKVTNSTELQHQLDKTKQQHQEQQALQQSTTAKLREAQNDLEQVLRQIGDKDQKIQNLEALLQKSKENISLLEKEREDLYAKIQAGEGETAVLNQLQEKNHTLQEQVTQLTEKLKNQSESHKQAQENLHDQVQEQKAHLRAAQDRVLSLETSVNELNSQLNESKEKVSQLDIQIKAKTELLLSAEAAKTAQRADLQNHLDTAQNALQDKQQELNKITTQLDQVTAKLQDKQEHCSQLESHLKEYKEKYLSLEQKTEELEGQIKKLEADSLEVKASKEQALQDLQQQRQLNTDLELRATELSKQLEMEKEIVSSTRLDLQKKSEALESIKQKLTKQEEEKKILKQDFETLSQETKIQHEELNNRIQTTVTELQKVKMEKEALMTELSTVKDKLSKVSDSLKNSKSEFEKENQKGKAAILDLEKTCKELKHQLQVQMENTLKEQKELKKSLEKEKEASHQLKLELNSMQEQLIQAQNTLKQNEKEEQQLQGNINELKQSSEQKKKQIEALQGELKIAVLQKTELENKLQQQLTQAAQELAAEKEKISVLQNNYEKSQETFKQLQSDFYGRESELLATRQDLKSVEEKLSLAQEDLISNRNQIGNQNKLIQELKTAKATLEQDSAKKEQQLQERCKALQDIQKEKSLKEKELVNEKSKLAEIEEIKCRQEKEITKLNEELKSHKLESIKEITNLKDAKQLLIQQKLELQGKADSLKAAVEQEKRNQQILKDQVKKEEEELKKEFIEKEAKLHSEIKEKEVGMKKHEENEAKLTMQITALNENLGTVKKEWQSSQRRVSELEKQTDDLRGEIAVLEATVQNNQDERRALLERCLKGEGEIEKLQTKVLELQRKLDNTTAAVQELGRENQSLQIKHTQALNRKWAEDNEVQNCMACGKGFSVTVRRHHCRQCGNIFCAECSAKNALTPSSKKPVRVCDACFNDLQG

Row | Variant | effect of a mutation on the interaction
1 | G55Q | disrupting interaction strength
2 | A57D | decreasing interaction strength
3 | A57E | disrupting interaction strength
4 | M89S | disrupting interaction strength

The next lines start with the values.

Row | effect of a mutation on the interaction | Variant
5 | disrupting interaction strength | A57S
6 | disrupting interaction strength | M89A

Variants of: B2
Conditions: with eea1_human EEA1, Q15075

Row | Variant | effect of a mutation on the interaction
7 | Q79L | with no effect

Variants of: B3
Conditions: with rbns5_human RBSN

Row | Variant | effect of a mutation on the interaction
8 | A94S | increasing interaction strength
9 | E48P | with no effect
10 | Q61K | with no effect
11 | K43E | disrupting interaction strength
12 | E51N | decreasing interaction strength

The next lines start with the values.

Row | effect of a mutation on the interaction | Variant
13 | with no effect | Y83F
14 | decreasing interaction strength | A57S
15 | disrupting interaction strength | A57D
16 | decreasing interaction strength | H84R
17 | with no effect | Y49N
18 | with no effect | L59M
19 | with no effect | Q50I
20 | decreasing interaction strength | S52P
21 | with no effect | E73L
